The nature of data set [1]: Metabolism and clearance of Suc-Met-Ala-Leu-Dox in mice (plasma, urine). The data set is classed as in vivo, mouse. The note with it: mouse, in vivo, iv, 120 mg/kg. Here is the method: Plasma samples were obtained at 1 or 4 hours, and urine was collected at 2 and 24 hours post administration. Levels of the prodrug and metabolites were measured by LC-MS with UV detection of doxorubicin.

A short description of data set [2]: SD-MTD studies, 60 days, normal mice (Example 14). The note with it: mouse, in vivo. The method, then: In the single dose Maximum Tolerated Dose (SD-MTD) studies, groups of normal mice were administered intravenous bolus doses of the prodrug. The mice were observed daily for 60 days and body weights measured twice weekly. The SD-MTD was estimated to be equal to the highest dose that produced no death in mice after 60 days.

In data set [3] the test system is HeLa cell anion exchange fraction (F1), trouase. In words: Relative cleavage by HeLa cell anion exchange fraction (F1) versus Suc-βAla-Leu-Ala-Leu standard. Format: biochemical, human. The method, then: Thirty billion commercially produced HeLa Cells (human cervical carcinoma, Computer Cell Culture Ceizter, Seneffe, Belgium) were homogenized with a sonicator and with a Dounce homogenizer in 108 mL of aqueous lysis solution. The lysis solution contained 0.02% w/v Triton X-100, 0.04% w/v sodium azide, and a cocktail of protease inhibitors (2 tablets/50 mL Complete™, EDTA-free tablets, Roche Molecular Biochemicals). The cell homogenate was centrifuged 30 minutes at 4° C. at 5000×g and the pellet was homogenized in a second 108 mL of lysis solution using a Dounce homogenizer and centrifuged as before. The supernatants were combined and centrifuged for 90 min at 145,000×g at 4° C.
A portion of the ultracentrifugation supernatant was diluted 2-fold with a 20 mM triethanolamine-HCl pH 7.2 buffer containing 0.01% (w/v) Triton X-100 and 0.02% (w/v) sodium azide (equilibration buffer). Thirty mL of the resulting solution, corresponding to approximately 180 mg of protein, was loaded at 4° C. on a 2.6×9.4 cm Source™ 15Q (Amersham Pharmacia Biotech) low pressure anion exchange chromatography column (1 ml/minute). The column was then washed with 250 ml of the equilibration buffer at a flow rate of 1 mL/minute. Proteins were eluted in a NaCl linear concentration gradient (0–0.5 M in the equilibration buffer, total volume of the gradient was 1000 ml) at a flow rate of 3 ml/minute. Two-minute fractions were collected and used for enzyme activity determination using βAla-Leu-Ala-Leu-Dox as the substrate. Its transformation into Ala-Leu-Dox was quantified by reverse phase high performance liquid chromatography utilizing fluorescence detection of the anthracycline moiety. The fractions containing the highest activity levels were pooled (fractions #43–46; ˜0.13 M NaCl), supplemented with protease inhibitors (Complete™, EDTA-free tablets, Roche Molecular Biochemicals), and stored as aliquots at −80° C.
Test compounds were incubated for 2 hr at 37° C. at a concentration of 12.5 μg/mL with HeLa cell anion exchange fraction (F1), as prepared in Example 1(c). Following incubation, three volumes of acetonitrile were added to stop the reaction and remove protein from the mixture. The sample was centrifuged at 18,000 g for 5 minutes and 100 μL of supernatant was mixed with 300 μL of water prior to analysis by HPLC. For HPLC analysis 50 μL of sample was injected on a 4.6×50 mm 2μ TSK Super-ODS chromatography column at 40° C. and eluted with a 3 minute linear gradient from 26% to 68% acetonitrile in aqueous 20 mM ammonium acetate pH 4.5 buffer at 2 mL/min. Detection was by fluorescence using an excitation wavelength of 235 nm and an emission wavelength of 560 nm.
the amount of cleavage of each test compound was compared to the amount of a standard Suc-βAla-Leu-Ala-Leu-therapeutic agent conjugate cleaved by F1 under the same conditions. The therapeutic agent in the standard (Dox or Dnr) was the same as in the test compound. Table 3 provides the relative cleavage rates of several tripeptide prodrugs.

For data set [4] the following is noted: mouse, in vivo.
Data set [5] has as its system healthy young female normal mice. The note with it: Example 7.
For data set [6], the system named is HT-29 (colon carcinoma) cells. The note with it: HT29, 48 hours, 3H-thymidine incorporation. The method, then:
(§1) Adherent cells, LNCaP (prostate carcinoma), HT-29 (colon carcinoma) and PC-3 (prostate carcinoma), were cultured in DMEM media containing 10% heat inactivated fetal calf serum (FCS). On the day of the study the cells were detached from the plate with a trypsin solution. The collected cells were washed and resuspended at a concentration of 0.25×10^6 cells/ml in DMEM containing 10% FCS. 100 μl of cell suspension were added to 96 well plates and the plates were incubated for 3 hours to allow the cells to adhere. […] The plates were then incubated for 24 hours, pulsed with 10 μl of a 100 μCi/ml ^3H-thymidine and incubated for an additional 24 hours (total incubation time 48 hours). The plates were harvested using a 96 well Harvester (Packard Instruments) and counted on a Packard Top Count Counter. Four parameter logistic curves were fitted to the ^3H-thymidine incorporation as a function of drug molarity using Prism software to determine IC50 values.
(§2) Prostate carcinoma cells, LNCaP and PC-3 cells or colon carcinoma cells HT-29, were incubated with increasing concentration of the indicated compounds for 48 hours and cellular proliferation was measured using the ^3H-thymidine assay.
Background: Uptake of a labelled nucleoside into DNA is a usual measure of proliferation.

In data set [7] the test system is PC-3 (prostate carcinoma) cells. The note with it: PC-3, 48 hours, 3H-thymidine incorporation. Here is the method: as §1, §2
Data set [8] deals with LNCaP (prostate carcinoma) cells. The note with it: 48 hours, 3H-thymidine incorporation. Here is the method:
as §1, §2

Data set [9] is described as follows: Comparative metabolism in mice, plasma AUC.
Experimental: (§3) Plasma was obtained from three individual animals in each group at 5 minutes, 1, 2, 4, or 6 hr.
The nature of data set [10]: Repeat-dose tolerability / repeat dose MTD in tumor bearing mice. The following applies: mouse, in vivo, Table 12, re-analyzed. Format: in vivo, mouse. The source says: In one study, one animal in each dose group (n=8) was terminated as a possible drug-related toxicity death late in the study, at Days 58 and 57 in the low and high dose-groups respectively. The safety of the compound was evidenced by little body weight loss in either the high or low dose groups (less than 5% of the initial weight) during the 60-day observation period, in surviving animals (FIG. 14). In the other study, both the high and low dose were well tolerated. Only one animal in the high dose group (n=10) had over 15% of body weight loss at the end of the study (Day 61).
In repeat-dose studies in tumor bearing mice, groups of ten mice were dosed with various amounts of prodrug for a total of five doses at either five day or 1 week intervals. […] Thus, the prodrugs permit a much greater amount of therapeutic agent to be delivered to the body as a whole and thus to the vicinity of the target cell.

Another data set in a line: in vivo. The following applies: female, ICR, mouse, iv, 100 umol/kg.
Where [11] appears, read: intravenous, SD MTD (mg/kg), value in parentheses (doxorubicin equivalent dose), Table 11, doses as first stated.
Setting [12] is: intravenous, SD MTD (mg/kg), value in parentheses: doxorubicin equivalent dose, Table 12, re-analyzed data and new data.
Setting [13] is: intravenous, Table 12, re-analyzed data and new data, read-out: SD MTD.
The mark [14] stands for this setting: iv, Table 11, doses as first stated, intravenous bolus, 60 days, read-out: SD MTD.
Setting [15] is: single IV bolus approximately 100 μmol/Kg, ICR mice.

Read-outs that look alike come from different tables or passages of the source.

Experimental for in vivo: as §3

As to `COc1cccc2c1C(=O)c1c(O)c3c(c(O)c1C2=O)C[C@@](O)(C(=O)CO)C[C@@H]3O[C@H]1C[C@H](NC(=O)[C@H](CC(C)C)NC(=O)[C@H](C)NC(=O)[C@H](CCSC)NC(=O)CCC(=O)O)[C@H](O)[C@H](C)O1` [Suc-Met-Ala-Leu-Dox], the “Plasma 4 hr, percent of administered dose” value in data set [1] is listed as roughly 0.001%. Further, the “Urine 2 hr, percent of administered dose” value in data set [1] was determined as 6.6%. For the same molecule, the MTD at 60 day in data set [2] (setting [11]) came out at 42 mg/kg; in data set [2] (setting [12]) it was 42 mg/kg; in data set [2] (setting [13]), 70 mg/kg; in data set [2] (setting [14]), 70 mg/kg. The “Relative Cleavage %” value in data set [3] (2 hr at 37° C., 12.5 μg/mL, HeLa F1, relative to Suc-βAla-Leu-Ala-Leu-(Dox or Dnr) standard) turned out to be 49%. Moreover, in data set [3] (relative to Suc-βAla-Leu-Ala-Leu-Dox = 100 (Tables 11 and 12)), the “Relative Rate of Cleavage” value is reported as 49. The MTD at 28 day in data set [4] (intravenous) was roughly 40 mg/kg; in [4] (iv) it was roughly 71 mg/kg. Besides, in [5], the “dose of doxorubicin at single dose MTD, fold higher than with doxorubicin alone” value is recorded as “about 1.5 fold”. For the same molecule, the “acute signs of toxicity” value in data set [5] (single intravenous 24-120 mg/kg) is “no acute signs of toxicity”.

By IC50 is commonly meant the midpoint of a concentration-inhibition curve. As usually defined, the AUC is the area under the concentration-time curve, a measure of exposure. As for `CC[C@H](C)[C@H](NC(=O)CCC(=O)O)C(=O)N[C@@H](C)C(=O)N[C@@H](CC(C)C)C(=O)N[C@H]1C[C@H](O[C@H]2C[C@](O)(C(=O)CO)Cc3c(O)c4c(c(O)c32)C(=O)c2c(OC)cccc2C4=O)O[C@@H](C)[C@H]1O` [Suc-Ile-Ala-Leu-Dox], the IC50 in data set [6] came out at 47 µM; in [7], 88 µM; in [8], 1.1 µM. In data set [9] (female, ICR, mouse, in vivo, iv, 100 umol/kg), this molecule had an AUC of 452 µM·h. Further, in [9] (single IV bolus approximately 100 μmol/Kg of prodrug, ICR mice), the “Dox, area under the plasma concentration time curve” value was 0.9 µM·h. Further, in data set [9] (setting [15]), the “AL-Dox or AG-DOX, area under the plasma concentration time curve” value was 1.0 µM·h. The “L-Dox or G-Dox, area under the plasma concentration time curve” value in [9] (setting [15]) worked out at 6.2 µM·h.

Consider `COc1cccc2c1C(=O)c1c(O)c3c(c(O)c1C2=O)C[C@@](O)(C(=O)CO)C[C@@H]3O[C@H]1C[C@H](NC(=O)[C@H](CC(C)C)NC(=O)[C@H](C)NC(=O)[C@H](CC(C)C)NC(=O)CCNC(=O)CCC(=O)O)[C@H](O)[C@H](C)O1` [Suc-βAla-Leu-Ala-Leu-Dox, reference compound], for which the MTD turned out to be 42 mg/kg in [2] (SD MTD (mg/kg), value in parentheses (doxorubicin equivalent dose), Table 11, doses as first stated); 28 mg/kg in [2] (SD MTD (mg/kg), value in parentheses: doxorubicin equivalent dose, Table 12, re-analyzed data and new data); 50 mg/kg in data set [2] (Table 12, re-analyzed data and new data, read-out: SD MTD); 75 mg/kg in data set [2] (setting [14]); 32 mg/kg in data set [10] (Repeat Dose MTD (mg/kg), value in parentheses: doxorubicin equivalent dose, Q 5 D × 5 or Q 7 D × 5); 57 mg/kg in data set [10] (Q 5 D × 5 or Q 7 D × 5 as given per compound, read-out: Repeat Dose MTD). This molecule also gave an AUC in the data set “in vivo” of 806 µM·h.

With `COc1cccc2c1C(=O)c1c(O)c3c(c(O)c1C2=O)C[C@@](O)(C(=O)CO)C[C@@H]3O[C@H]1C[C@H](NC(=O)[C@H](CC(C)C)NC(=O)[C@H](Cc2ccc(O)cc2)NC(=O)[C@H](CC(C)C)NC(=O)CCC(=O)O)[C@H](O)[C@H](C)O1` [Suc-Leu-Tyr-Leu-Dox], the MTD at 60 day in data set [2] (setting [11]) was greater than 70 mg/kg; in data set [2] (setting [12]), greater than 70 mg/kg; in [2] (setting [13]), greater than 128 mg/kg; in data set [2] (setting [14]) it was greater than 128 mg/kg. Further, the concentration for half-maximal inhibition (IC50) worked out at 42 µM in data set [6], 51 µM in [7] and 9.4 µM in data set [8].

With `CC[C@H](C)[C@H](NC(=O)CCNC(=O)CCC(=O)O)C(=O)N[C@@H](C)C(=O)N[C@@H](CC(C)C)C(=O)N[C@H]1C[C@H](O[C@H]2C[C@](O)(C(=O)CO)Cc3c(O)c4c(c(O)c32)C(=O)c2c(OC)cccc2C4=O)O[C@@H](C)[C@H]1O` [Suc-βAla-Ile-Ala-Leu-Dox], the AUC in “in vivo” is 326 µM·h.

The values above are taken from patent US7214663B2, “Tripeptide prodrug compounds” (Medarex, Inc., priority 2001, dated 2007).
